Measurements taken from PMC5153249.
Several values for one entry are separate records, joined by “and”; a condition that tells them apart may be missing. Equal entries are not always repeated.

Legend:
[1] = molecular target: 43S pre-initiation complex (40S, eIF1, eIF1A, ternary complex; no mRNA) (S. cerevisiae) (UniProt P32911); assay: native gel or EMSA; gel shift monitoring [35S]-Met-tRNAi; 43S PICs without mRNA (1 µM eIF1, 1 µM eIF1A, 200 nM eIF2, 1 mM GDPNP•Mg2+, 2 nM Met-tRNAi, 30 nM 40S); eIF3 titrated 30-500 nM; 1X Recon buffer (30 mM HEPES-KOH pH 7.4, 100 mM KOAc, 3 mM Mg(OAc)2, 2 mM DTT), 26 °C, 2 h; apparent KD, Hill equation; single experiments; apparent affinities ≤ 30 nM likely upper limits
[2] = molecular target: 48S pre-initiation complex (40S, eIF1, eIF1A, ternary complex, AUG-containing model mRNA) (S. cerevisiae) (UniProt P32911); assay: native gel or EMSA; gel shift monitoring [35S]-Met-tRNAi; 48S PICs with 1 µM uncapped AUG-containing model mRNA (1 µM eIF1, 1 µM eIF1A, 200 nM eIF2, 1 mM GDPNP•Mg2+, 2 nM Met-tRNAi, 20 nM 40S); eIF3 titrated 30-500 nM; 1X Recon buffer, 26 °C, 2 h; apparent KD, Hill equation; single experiments; apparent affinities ≤ 30 nM likely upper limits
[3] = tested on: yeast 43S PIC: 40S+eIF1+eIF1A+eIF2 (Met-tRNAi TC); for mRNA recruitment also eIF5, eIF4A, eIF4B, eIF4E-eIF4G (Saccharomyces cerevisiae); assay: EMSA; conditions: no eIF3, measurement 1, m7G cap, 30 mM HEPES-KOH pH 7.4, 100 mM KOAc, 3 mM Mg(OAc)2, 2 mM DTT, 1 mM GDPNP, 26 C, 2 h, native 4% THEM gel
[4] = tested on: yeast 43S PIC: 40S+eIF1+eIF1A+eIF2 (Met-tRNAi TC); for mRNA recruitment also eIF5, eIF4A, eIF4B, eIF4E-eIF4G;eIF3 (a delta8) (Saccharomyces cerevisiae;Saccharomyces cerevisiae); assay: EMSA; conditions: measurement 1, m7G cap, 30 mM HEPES-KOH pH 7.4, 100 mM KOAc, 3 mM Mg(OAc)2, 2 mM DTT, 1 mM GDPNP, 26 C, 2 h, native 4% THEM gel
[5] = tested on: yeast 43S PIC: 40S+eIF1+eIF1A+eIF2 (Met-tRNAi TC); for mRNA recruitment also eIF5, eIF4A, eIF4B, eIF4E-eIF4G;eIF3 WT (a/b/c/i/g) (Saccharomyces cerevisiae;Saccharomyces cerevisiae); assay: EMSA; conditions: measurement 1; m7G cap; 30 mM HEPES-KOH pH 7.4, 100 mM KOAc, 3 mM Mg(OAc)2, 2 mM DTT, 1 mM GDPNP, 26 C, 2 h; native 4% THEM gel
[6] = tested on: yeast 43S PIC: 40S+eIF1+eIF1A+eIF2 (Met-tRNAi TC); for mRNA recruitment also eIF5, eIF4A, eIF4B, eIF4E-eIF4G;eIF3 (a Box37) (Saccharomyces cerevisiae;Saccharomyces cerevisiae); assay: EMSA; conditions: measurement 1; m7G cap; 30 mM HEPES-KOH pH 7.4, 100 mM KOAc, 3 mM Mg(OAc)2, 2 mM DTT, 1 mM GDPNP, 26 C, 2 h; native 4% THEM gel
[7] = tested on: yeast 43S PIC: 40S+eIF1+eIF1A+eIF2 (Met-tRNAi TC); for mRNA recruitment also eIF5, eIF4A, eIF4B, eIF4E-eIF4G;eIF3 (a Box6) (Saccharomyces cerevisiae;Saccharomyces cerevisiae); assay: EMSA; conditions: measurement 1; m7G cap; 30 mM HEPES-KOH pH 7.4, 100 mM KOAc, 3 mM Mg(OAc)2, 2 mM DTT, 1 mM GDPNP, 26 C, 2 h; native 4% THEM gel
[8] = tested on: yeast 43S PIC: 40S+eIF1+eIF1A+eIF2 (Met-tRNAi TC); for mRNA recruitment also eIF5, eIF4A, eIF4B, eIF4E-eIF4G;eIF3 (a H725P) (Saccharomyces cerevisiae;Saccharomyces cerevisiae); assay: EMSA; conditions: measurement 1; m7G cap; 30 mM HEPES-KOH pH 7.4, 100 mM KOAc, 3 mM Mg(OAc)2, 2 mM DTT, 1 mM GDPNP, 26 C, 2 h; native 4% THEM gel
[9] = tested on: yeast 43S PIC: 40S+eIF1+eIF1A+eIF2 (Met-tRNAi TC); for mRNA recruitment also eIF5, eIF4A, eIF4B, eIF4E-eIF4G;eIF3 (a R731I) (Saccharomyces cerevisiae;Saccharomyces cerevisiae); assay: EMSA; conditions: measurement 1; m7G cap; 30 mM HEPES-KOH pH 7.4, 100 mM KOAc, 3 mM Mg(OAc)2, 2 mM DTT, 1 mM GDPNP, 26 C, 2 h; native 4% THEM gel
[10] = tested on: yeast 43S PIC: 40S+eIF1+eIF1A+eIF2 (Met-tRNAi TC); for mRNA recruitment also eIF5, eIF4A, eIF4B, eIF4E-eIF4G;eIF3 (b prt1-1) (Saccharomyces cerevisiae;Saccharomyces cerevisiae); assay: EMSA; conditions: 30 mM HEPES-KOH pH 7.4, 100 mM KOAc, 3 mM Mg(OAc)2, 2 mM DTT, 1 mM GDPNP, 26 C, 2 h, native 4% THEM gel; for binding signal: measurement 1, m7G cap
[11] = tested on: yeast 43S PIC: 40S+eIF1+eIF1A+eIF2 (Met-tRNAi TC); for mRNA recruitment also eIF5, eIF4A, eIF4B, eIF4E-eIF4G;eIF3 (b rnp1) (Saccharomyces cerevisiae;Saccharomyces cerevisiae); assay: EMSA; conditions: 30 mM HEPES-KOH pH 7.4, 100 mM KOAc, 3 mM Mg(OAc)2, 2 mM DTT, 1 mM GDPNP, 26 C, 2 h, native 4% THEM gel; for binding signal: measurement 1, m7G cap
[12] = tested on: yeast 43S PIC: 40S+eIF1+eIF1A+eIF2 (Met-tRNAi TC); for mRNA recruitment also eIF5, eIF4A, eIF4B, eIF4E-eIF4G;eIF3 (c Box12-SPW) (Saccharomyces cerevisiae;Saccharomyces cerevisiae); assay: EMSA; conditions: measurement 1; m7G cap; 30 mM HEPES-KOH pH 7.4, 100 mM KOAc, 3 mM Mg(OAc)2, 2 mM DTT, 1 mM GDPNP, 26 C, 2 h; native 4% THEM gel
[13] = tested on: yeast 43S PIC: 40S+eIF1+eIF1A+eIF2 (Met-tRNAi TC); for mRNA recruitment also eIF5, eIF4A, eIF4B, eIF4E-eIF4G;eIF3 (c GAP85) (Saccharomyces cerevisiae;Saccharomyces cerevisiae); assay: EMSA; conditions: measurement 1; m7G cap; 30 mM HEPES-KOH pH 7.4, 100 mM KOAc, 3 mM Mg(OAc)2, 2 mM DTT, 1 mM GDPNP, 26 C, 2 h; native 4% THEM gel
[14] = tested on: yeast 43S PIC: 40S+eIF1+eIF1A+eIF2 (Met-tRNAi TC); for mRNA recruitment also eIF5, eIF4A, eIF4B, eIF4E-eIF4G;eIF3 (c delta60) (Saccharomyces cerevisiae;Saccharomyces cerevisiae); assay: EMSA; conditions: measurement 1; m7G cap; 30 mM HEPES-KOH pH 7.4, 100 mM KOAc, 3 mM Mg(OAc)2, 2 mM DTT, 1 mM GDPNP, 26 C, 2 h; native 4% THEM gel
[15] = tested on: yeast 43S PIC: 40S+eIF1+eIF1A+eIF2 (Met-tRNAi TC); for mRNA recruitment also eIF5, eIF4A, eIF4B, eIF4E-eIF4G;eIF3 (g KLF) (Saccharomyces cerevisiae;Saccharomyces cerevisiae); assay: EMSA; conditions: measurement 1; m7G cap; 30 mM HEPES-KOH pH 7.4, 100 mM KOAc, 3 mM Mg(OAc)2, 2 mM DTT, 1 mM GDPNP, 26 C, 2 h; native 4% THEM gel
[16] = tested on: yeast 43S PIC: 40S+eIF1+eIF1A+eIF2 (Met-tRNAi TC); for mRNA recruitment also eIF5, eIF4A, eIF4B, eIF4E-eIF4G;eIF3 (i Q258R) (Saccharomyces cerevisiae;Saccharomyces cerevisiae); assay: EMSA; conditions: measurement 1; m7G cap; 30 mM HEPES-KOH pH 7.4, 100 mM KOAc, 3 mM Mg(OAc)2, 2 mM DTT, 1 mM GDPNP, 26 C, 2 h; native 4% THEM gel
[17] = tested on: yeast 43S PIC: 40S+eIF1+eIF1A+eIF2 (Met-tRNAi TC); for mRNA recruitment also eIF5, eIF4A, eIF4B, eIF4E-eIF4G;eIF3 a/b/c sub-complex (Saccharomyces cerevisiae;Saccharomyces cerevisiae); assay: EMSA; conditions: 30 mM HEPES-KOH pH 7.4, 100 mM KOAc, 3 mM Mg(OAc)2, 2 mM DTT, 1 mM GDPNP, 26 C, 2 h, native 4% THEM gel; for binding signal: measurement 1, m7G cap
[18] = molecular target: 48S pre-initiation complex (40S, eIF1, eIF1A, ternary complex, AUG-containing model mRNA) (S. cerevisiae) (UniProt P32911); assay: other; 48S PIC, + mRNA
[19] = molecular target: 43S pre-initiation complex (40S ribosomal subunit, eIF1, eIF1A and eIF2•GDPNP•Met-tRNAi ternary complex); called 48S PIC when AUG-containing model mRNA is added (yeast) (UniProt P32911); assay: other; 43S PIC, no mRNA
[20] = molecular target: 43S pre-initiation complex (40S ribosomal subunit, eIF1, eIF1A and eIF2•GDPNP•Met-tRNAi ternary complex); called 48S PIC when AUG-containing model mRNA is added (yeast) (UniProt P32911); assay: native gel or EMSA; eIF3 (30-500 nM) titrated into 48S PICs: 1 µM uncapped AUG-containing model mRNA, 20 nM 40S, 1 µM eIF1, 1 µM eIF1A, 200 nM eIF2, 1 mM GDPNP•Mg2+, 2 nM [35S]-Met-tRNAi; 26 °C, 2 h; apparent KD from a Hill fit
[21] = molecular target: 43S pre-initiation complex (40S ribosomal subunit, eIF1, eIF1A and eIF2•GDPNP•Met-tRNAi ternary complex); called 48S PIC when AUG-containing model mRNA is added (yeast) (UniProt P32911); assay: native gel or EMSA; eIF3 (30-500 nM) titrated into 43S PICs without mRNA: 30 nM 40S, 1 µM eIF1, 1 µM eIF1A, 200 nM eIF2, 1 mM GDPNP•Mg2+, 2 nM [35S]-Met-tRNAi; 1X Recon buffer (30 mM HEPES-KOH pH 7.4, 100 mM KOAc pH 7.6, 3 mM Mg(OAc)2, 2 mM DTT); 26 °C, 2 h; apparent KD from a Hill fit, free eIF3 corrected for free …
[22] = no mRNA, ~3 fold weaker than WT, mean of 2, column assigned from text, Met-charged

eIF3 (wild type) (from UniProt P38249 1-964; P06103 1-763; P32497 1-812; P40217 1-347; Q04067 1-274) (complex)
Kd [1]: 43 nM and 24 nM

eIF3 variant ∆60 (eIF3c/Nip1 CTD) (from UniProt P38249 1-964; P06103 1-763; P32497 1-752; P40217 1-347; Q04067 1-274) (complex)
Kd [2]: 41 nM and 52 nM
Kd [1]: 27 nM and 21 nM

eIF3a/b/c sub-complex lacking the i and g subunits (from UniProt P38249 1-964; P06103 1-763; P32497 1-812)
Kd [2]: 106 nM and 111 nM
Kd [1]: 87 nM and 98 nM

3'17-AUG model mRNA
binding signal [3]: 71.4 % recruited
binding signal [4]: 89.9 % recruited
binding signal [5]: 97.2 % recruited

eIF3 variant R731I (eIF3a/Tif32 CTD) (from UniProt P38249 1-964; P06103 1-763; P32497 1-812; P40217 1-347; Q04067 1-274) (complex)
Kd [1]: 126 nM

mid-AUG model mRNA
binding signal [3]: 88.2 % recruited
binding signal [6]: 96.8 % recruited
binding signal [7]: 97.1 % recruited
binding signal [8]: 93.3 % recruited
binding signal [9]: 93.8 % recruited
binding signal [4]: 95.9 % recruited
binding signal [10]: 94.6 % recruited
binding signal [11]: 77.8 % recruited
binding signal [12]: 96.1 % recruited
binding signal [13]: 97.7 % recruited
binding signal [14]: 96.9 % recruited
binding signal [15]: 98.3 % recruited
binding signal [16]: 97.7 % recruited
binding signal [5]: 98.5 % recruited
binding signal [17]: 81.6 % recruited

initiator tRNAiMet
Kd [10, 22]: 42.3 nM
Kd ([11]; no mRNA, ~2 fold weaker than WT, mean of 2, column assigned from text, Met-charged): 28.1 nM
Kd [17, 22]: 47.8 nM

5'5-AUG model mRNA
binding signal [3]: 68.2 % recruited
binding signal [6]: 82.5 % recruited
binding signal [7]: 62.5 % recruited
binding signal [8]: 58.2 % recruited
binding signal [9]: 57.7 % recruited
binding signal [4]: 91.7 % recruited
binding signal [10]: 79.9 % recruited
binding signal [11]: 69.4 % recruited
binding signal [12]: 85.3 % recruited
binding signal [13]: 80.1 % recruited
binding signal [14]: 87.9 % recruited
binding signal [15]: 84.7 % recruited
binding signal [16]: 80.3 % recruited
binding signal [5]: 84.1 % recruited
binding signal [17]: 32.1 % recruited

5'11-AUG model mRNA
binding signal ([3]; columns as in Fig 5): 90.9 % recruited
binding signal [7]: 97.8 % recruited
binding signal [8]: 94.6 % recruited
binding signal [9]: 91.8 % recruited
binding signal [5]: 97.9 % recruited
binding signal [17]: 66.7 % recruited

3'5-AUG model mRNA
binding signal ([3]; almost no recruitment): 1.04 % recruited
binding signal [6]: 67.2 % recruited
binding signal [7]: 73.3 % recruited
binding signal [8]: 77.1 % recruited
binding signal [9]: 73.6 % recruited
binding signal ([4]; text: no recruitment): 5.17 % recruited
binding signal [10]: 77.9 % recruited
binding signal [11]: 66.2 % recruited
binding signal [12]: 75.1 % recruited
binding signal [13]: 81 % recruited
binding signal [14]: 78.3 % recruited
binding signal [15]: 72.6 % recruited
binding signal [16]: 71 % recruited
binding signal [5]: 78.9 % recruited
binding signal [17]: 50.3 % recruited

eIF3a/b/c sub-complex lacking the i and g subunits (eIF3 purified from eIF3i DDKK cells) (from UniProt P38249 1-964; P06103 1-763; P32497 1-812)
Kd [18]: 109 nM
Kd [19]: 90 nM
fold decrease of apparent affinity against WT eIF3 [20]: 3 fold
fold decrease of apparent affinity against WT eIF3 [21]: 2 fold
